Results taken from article PMC5240998 (2017).

Columns and labels:
[1] = molecular target: T1, GI.7 norovirus virus-like particles (norovirus GI.7 (strain )); assay: SPR; kinetic fit; VLPs captured by mAb 3912
[2] = molecular target: T2, GI.1 norovirus (Norwalk virus) virus-like particles (Norwalk virus (norovirus GI.1), UniProt Q83884 1-530); assay: SPR; kinetic fit; VLPs captured by mAb 3912
T2 chain: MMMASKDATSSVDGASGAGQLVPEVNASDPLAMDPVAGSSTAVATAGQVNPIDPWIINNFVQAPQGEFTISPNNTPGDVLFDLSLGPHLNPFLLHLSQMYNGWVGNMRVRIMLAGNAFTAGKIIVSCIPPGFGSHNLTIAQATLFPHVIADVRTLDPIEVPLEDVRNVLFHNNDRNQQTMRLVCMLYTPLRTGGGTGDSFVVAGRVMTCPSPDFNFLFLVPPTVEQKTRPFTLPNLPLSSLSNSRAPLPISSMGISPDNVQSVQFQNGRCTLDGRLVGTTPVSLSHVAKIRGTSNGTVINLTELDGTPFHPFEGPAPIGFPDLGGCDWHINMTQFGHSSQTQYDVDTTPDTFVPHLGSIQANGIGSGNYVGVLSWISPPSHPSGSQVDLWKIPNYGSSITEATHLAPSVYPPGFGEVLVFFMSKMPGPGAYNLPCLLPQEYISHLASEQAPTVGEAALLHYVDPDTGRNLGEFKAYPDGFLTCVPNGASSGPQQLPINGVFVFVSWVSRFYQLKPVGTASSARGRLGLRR

[3] = molecular target: T1, GI.7 norovirus virus-like particles; assay: SPR; VLPs captured by mAb 3912
[4] = molecular target: T2, GI.1 norovirus (Norwalk virus) …; assay: SPR; VLPs captured by mAb 3912

B1: Purified NJT-R3-A3 scFv soluble protein (scFv, V domains shown)
VH: EVQLLESGGGLVQPGGSLRLSCAASGFTFSSYAMSWVRQAPGKGLEWVSSIPRPGLHTSYADSVKGRFTISRDNSKNTLYLQMNSLRAEDTAVYYCAKHLRTFDYWGQGTLVTVSS
VL: DIQMTQSPSSLSASVGDRVTITCRASQSISSYLNWYQQKPGKAPKLLIYGASRLQSGVPSRFSGSGSGTDFTLTISSLQPEDFATYYCQQLPAVPITFGQGTKVEIK
[1]
  Ka: 2.02e+07 M⁻¹
[2]
  Ka: 3.69e+07 M⁻¹
[3]
  koff: 0.00224 s⁻¹
[4]
  koff: 0.00149 s⁻¹
